Tests used:
[1] = target: T1, OFD1-Flag recombinant protein (UniProt O75665 1-1012); test: pull-down; in vitro peptide competition: 5 μg purified OFD1-Flag and E2F4-Strep II-HA with HA agarose; candidate peptides at 200 μM, validation at 0, 12.5, 25, 50, 100 and 200 μM; overnight at 4 °C; conditions: both partners purified
T1 construct: OFD1; also called recombinant OFD1; source: HEK293S, purified (Flag agarose, eluted with Flag peptide)
T1 sequence (looked up): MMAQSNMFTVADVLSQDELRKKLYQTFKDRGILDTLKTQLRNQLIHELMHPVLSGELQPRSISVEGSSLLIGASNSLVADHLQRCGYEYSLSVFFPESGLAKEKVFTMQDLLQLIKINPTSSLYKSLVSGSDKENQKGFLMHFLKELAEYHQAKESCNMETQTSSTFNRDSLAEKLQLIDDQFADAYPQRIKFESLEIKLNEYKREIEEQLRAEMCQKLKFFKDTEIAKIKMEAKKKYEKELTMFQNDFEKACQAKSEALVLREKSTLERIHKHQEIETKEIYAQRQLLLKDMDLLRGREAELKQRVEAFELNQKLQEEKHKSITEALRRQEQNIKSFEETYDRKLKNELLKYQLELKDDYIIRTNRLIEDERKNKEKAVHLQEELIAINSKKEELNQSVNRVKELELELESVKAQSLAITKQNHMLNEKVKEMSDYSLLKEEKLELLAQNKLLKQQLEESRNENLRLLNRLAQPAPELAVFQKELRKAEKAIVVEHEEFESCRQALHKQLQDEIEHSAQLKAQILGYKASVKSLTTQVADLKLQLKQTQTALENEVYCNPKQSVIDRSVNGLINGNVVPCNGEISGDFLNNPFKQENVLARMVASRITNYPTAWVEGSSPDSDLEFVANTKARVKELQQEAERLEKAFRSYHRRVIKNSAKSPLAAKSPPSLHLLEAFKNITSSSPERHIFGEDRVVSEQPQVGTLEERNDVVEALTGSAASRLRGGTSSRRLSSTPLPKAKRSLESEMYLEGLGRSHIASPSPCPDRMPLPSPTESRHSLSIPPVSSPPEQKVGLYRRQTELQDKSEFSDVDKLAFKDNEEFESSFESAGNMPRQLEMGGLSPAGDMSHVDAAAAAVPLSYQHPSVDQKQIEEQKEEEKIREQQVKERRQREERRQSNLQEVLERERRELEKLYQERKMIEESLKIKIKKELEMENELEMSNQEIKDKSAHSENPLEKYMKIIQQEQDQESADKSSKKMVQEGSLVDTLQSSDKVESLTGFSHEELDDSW

[2] = target: T1, OFD1-Flag recombinant protein; test: pull-down; 20 μg purified OFD1-Flag and E2F4-Strep II-HA with Flag agarose or HA agarose in TAP lysis buffer, 3-4 h at 4 °C; conditions: both partners purified

B1: E2F4 peptide spanning residues 283-302 (peptide)
peptide: ELSSLPLGPTTLDTRPLQSS
notes: the TAT-conjugated form was used on cells only; source: synthetic peptide
B1: binds [1].

B2: E2F4-Strep II-HA recombinant protein (natural protein)
chain: not shown
notes: E2F4; also called recombinant E2F4; source: HEK293S, purified (StrepTactin XT beads, then HA agarose, eluted with HA peptide)
B2: binds [2].

From article PMC12325586, “OFD1 inhibition induces BRCAness to create a therapeutic vulnerability to PARP inhibition in pancreatic cancer” (Nature Communications, 2025)
